The test addresses dimeric human ACE2 fused to Fc domain of human IgG (human) (UniProt Q9BYF1). Kind of test: SPR. On the technique in general: SPR reads the build-up and loss of mass on a sensor chip optically.

dimeric human ACE2 fused to Fc domain of human IgG (human), sequence (Q9BYF1 18-740): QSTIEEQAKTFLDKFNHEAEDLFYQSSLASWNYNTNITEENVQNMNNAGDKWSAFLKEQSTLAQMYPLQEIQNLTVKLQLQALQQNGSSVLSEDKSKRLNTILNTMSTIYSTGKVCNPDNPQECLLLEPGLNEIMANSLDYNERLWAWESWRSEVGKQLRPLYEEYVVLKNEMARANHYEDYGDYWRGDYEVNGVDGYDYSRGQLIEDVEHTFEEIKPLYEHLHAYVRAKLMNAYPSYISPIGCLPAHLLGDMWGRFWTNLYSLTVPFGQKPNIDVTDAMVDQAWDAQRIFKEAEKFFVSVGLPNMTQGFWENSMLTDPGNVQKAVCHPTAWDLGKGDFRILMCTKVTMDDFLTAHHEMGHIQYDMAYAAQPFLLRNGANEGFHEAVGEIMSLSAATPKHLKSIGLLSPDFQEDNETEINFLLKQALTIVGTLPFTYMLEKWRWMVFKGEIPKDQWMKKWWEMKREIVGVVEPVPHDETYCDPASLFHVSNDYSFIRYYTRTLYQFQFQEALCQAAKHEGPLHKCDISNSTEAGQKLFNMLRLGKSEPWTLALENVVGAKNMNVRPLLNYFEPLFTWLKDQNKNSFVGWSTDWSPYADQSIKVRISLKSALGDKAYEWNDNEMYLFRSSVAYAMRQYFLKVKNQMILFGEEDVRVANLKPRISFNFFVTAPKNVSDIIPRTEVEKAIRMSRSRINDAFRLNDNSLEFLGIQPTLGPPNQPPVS

Broadly, the Kd is the equilibrium constant for the complex coming apart. A lower Kd goes with tighter binding. Consider “ADDomer particle decorated with SARS-CoV-2 RBD (ADD-RBD) (from UniProt Q2Y0H9 1-544; P0DTC2 320-554) (complex)”, for which the Kd was 0.309 nM.

Source of the values: paper doi:10.1101/2021.09.13.460076.
